From PMC6034511
pKd: −log10 of the molar value.

Tested on: HIV-1 RT p66/p51 wild type (HIV-1)
Assay: fluorescence polarization
Settings: not stated in the held text (SI Experimental section)

In the case of 5'-fluorescein DNA/RNA hybrid, the pKd was 8.46.
